Consider one molecule from patent US20030190687A1 (UAB RESEARCH FOUNDATION, published 2003).

The target of the assay is T1, human DR5 on the cell surface (Cos-7 cells transfected with full-length human DR5 cDNA); human cells that … (human, UniProt O14763 56-440).
T1 construct: whole, on cells; also called cell surface DR5; full-length DR5
Description: radioisotope labeled TRA-8 on a breast cancer line in vitro; reference soluble TRAIL.

B1: anti-human DR5 monoclonal antibody TRA-8 (mouse-mouse hybridoma TRA-8, ATCC PTA-1428) (antibody, mouse IgG1, kappa, V domains shown)
VH: EVMLVESGGGLVKPGGSLKLSCAASGFTFSSYVMSWVRQTPEKRLEWVATISSGGSYTYYPDSVKGRFTISRDNAKNTLYLQMSSLRSEDTAMYYCARRGDSMITTDYWGQGTTLTVSS
VL: DIVMTQSHKFMSTSVGDRVSITCKASQDVGTAVAWYQQKPGQSPKLLIYWASTRHTGVPDRFTGSGSGTDFTLTISNVQSEDLADYFCQQYSSYRTFGGGTKLEIKR
notes: also called monoclonal anti-DR5 antibody (clone: TRA-8); TRA-8 antibody
B1: the “fold higher binding activity than soluble TRAIL” value was 50 fold.
